Laboratory results taken from US20220073598A1 (KYMAB, published 2022).

T1: human BMP6 (Peprotech), reduced monomer on SDS-PAGE (human, UniProt P22004 397-513)
T1 construct: also called reduced BMP6 monomers; 18 kDa monomer
T1 sequence: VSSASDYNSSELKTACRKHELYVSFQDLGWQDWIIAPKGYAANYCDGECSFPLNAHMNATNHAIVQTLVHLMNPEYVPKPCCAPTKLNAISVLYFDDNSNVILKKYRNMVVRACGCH

T2: recombinant human BMP6 (Peprotech 120-06) (human, UniProt P22004 397-513)
T2 construct: Biotinylated and immobilised for SPR; also called hBMP6; Bone Morphogenetic Protein 6
T2 sequence: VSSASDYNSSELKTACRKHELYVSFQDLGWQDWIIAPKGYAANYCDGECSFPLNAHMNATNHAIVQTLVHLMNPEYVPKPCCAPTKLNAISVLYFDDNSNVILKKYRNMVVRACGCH


Experiments:
[1] = target: T1, human BMP6 (Peprotech), reduced monomer …; assay: Western blot after reducing SDS-PAGE
Protocol: (§1) 2 μg/lane purified human BMP6 (Peprotech) separated by SDS-PAGE and stained with Coomassie blue (A) under reducing (R) and non-reducing (NR) conditions and Western blots from such gels blotted onto membranes and then probed with purified human anti-BMP6 antibodies as labelled.
(§2) Since BMP6 is a disulphide linked dimer the reducing condition should create monomers on the gel instead of dimers on the non-reduced gel.

[2] = target: T2, recombinant human BMP6 (Peprotech …); assay: Western blot after non-reducing SDS-PAGE
Protocol: as §1, §2

[3] = target: T2, recombinant human BMP6 (Peprotech …); assay: HTRF competition: unlabelled antibody titrated (11 points, top 3 µM) against labelled CL-58838 (10 nM) for binding to labelled human BMP6 (32 nM)

binding result [1]	binding result [2]	binding result [3]	Binder
–	–	binds	CL-58713 (antibody, human IgG4 S228P, kappa, V domains shown) VH: QVQLVESGGGLVKPGGSLRLSCAASGFTFSDYYMSWIRQAPGKGLEWVSYISISGITIYYADSVKGRFTISRDNARNSLYLQMNSLRAEDTAVYYCARRSSGWYDYWGQGTLVTVSS VL: EIVLTQSPGTLSLSPGERATLSCRASQSVSYNYLAWYQQKPGQAPRLLIYGASIRATGIPDRFSGSGSGTDFTLTISRLEPEDFAVYCCHQYGSSPPTFGQGTKVEIKR
–	–	binds	CL-58722 (antibody, human IgG4 S228P, kappa, V domains shown) VH: QVQLVESGGGLVKPGGSLRLSCAASGFTFSDYYMSWIRQAPGKGLEWVSYISISGSTIYYADSVKGRFTISRDNAKNSLFLQMNSLRAEDTAVYYCARRSSGWYDYWGQGTLVTVSS VL: EIVLTQSPGTLSLSPGERATLSCRASQSVSSNYLAWYQQKPGQAPRLLIYGASIRATGIPDRFSGSGSGTDFTLTISRLEPEDFAVYSCHQYGSSPPTFGQGTKVEIKR

Continued, binder first:

Binder	binding result [1]	binding result [2]	binding result [3]
Antibody B (antibody, human IgG1, lambda, V domains shown, also called anti-BMP6 Antibody B) VH: QVQLVESGGGLVKPGGSLRLSCAASGFTFSSYVVHWVRQAPGKGLEWVGRIRLETHGYAAEYAASVKGRFTISRDDSKNTLYLQMNSLKTEDTAVYYCARVERSKSGFDNWGQGTLVTVSS VL: QSVLTQPPSVSGAPGQRVTISCTGSSSNIGAGYSVHWYQQLPGTAPKLLIYGQSERPSGVPDRFSGSKSGTSASLAITGLQAEDEADYYCQSWDSSQTLVVFGGGTKLTVLG	binds	binds	–
CL-58756 (antibody, human IgG4 S228P, kappa, V domains shown) VH: QVQLVESGGGLVKPGGSLRLSCAASGFTFSDYYMSWIRQAPGKGLEWVSYISISGSTIYYADSVKGRFTISRDNAKNSLYLQMNSLRAEDTAVYYCARRSSGWYDYWGQGTLVTVSS VL: EIVLTQSPGTLSLSPGERATLSCRASQSVSSNYLAWYQQKPGQAPRLLIYGASIRATGIPDRFSGSGSGTDFTLTISRLEPEDFAVYCCHQYGSSPPTFGQGTKVEIKR	–	–	binds
